Reference: patent publication US6121423, “Reshaped human antibody to human interleukin-6” (Chugai Seiyaku Kabushiki Kaisha, dated 2000)

Molecular target: recombinant human IL-6 (human, UniProt P05231, biotinylated in the binding-inhibition assay (sites not given); unlabelled in the antigen-binding assay)
Assay: ELISA, IL-6 captured by MH166
Protocol: An ELISA plate for antigen-binding assay was prepared as follows. A 96-well plate was coated with mouse monoclonal antibody MH166 recognizing a different epitope of human IL-6 from that recognized by SK2 (Matsuda, T. et al., Eur. J. Immunol. 18, 951–956, 1988), and after blocking, recombinant human IL-6 was added thereto. A sample of the chimeric SK2 antibody was sequentially diluted, added to each well, and then an alkaline phosphatase-conjugated goat anti-human IgG antibody (Sigma) was added thereto. After incubation and washing, substrate was added, and absorbance at 405 nm was measured.

binding result: binds
B1: chimeric SK2 antibody NTS (antibody, V domains shown)
VH: QVTLKESGPGILQPSQTLSLTCSFSGFSLSTSGMTVGWIRQPSGKGLEWLAHIWWNDDKYYNPALKGRLTISKDTSNNQVFLKIASVVTADTATYYCARMEDYDEAMDYWGQGTSVTVSS
VL: DIQMTQSPASLSVSVGETVTITCRASENIYSNLAWYQQKQGKSPQLLVYAATYLADGVPSRFSGSGSGTQYSLKINSLQSEDFGSYYCQHFWGTPPFGSGTKLEIK
